Data from publication PMC4884477.

Key:
[1] = molecular target: E. coli Hfq (Escherichia coli, UniProt P0A6X3 1-102); experiment: fluorescence anisotropy
[2] = molecular target: S. aureus Hfq (Staphylococcus aureus, UniProt A0A0H3JV59 1-77); experiment: fluorescence anisotropy

Binder GUGGUCAGUCGAGUGGCUUCCGUCCAUUUCGGACGUUUUUU (structured_RNA) [Cy3-mini-sRNA] has a Kd [1] of 2.7 ± 0.8 nM and a Kd [2] of 100 nM.
